No end group written: not given here.

Test [1] deals with soluble human insulin receptor-immunoglobulin heavy chain chimera (sIR-Fc) (human), P06213. The experiment in a line: fluorescence polarization competition with FITC-RP9 for sIR-Fc. Conditions: remark: other sources report otherwise. Background: Fluorescence polarisation rises when a labelled molecule tumbles more slowly, as on binding a larger partner.
Test [2] addresses Insulin receptor prepared according to Bass et al., 1996: soluble human insulin receptor-immunoglobulin heavy chain chimera (human) (UniProt P06213). Put plainly: phage ELISA vs milk. A general note: An ELISA detects its analyte on a solid surface through an enzyme-linked reagent.
Test [3] has the same target. The experiment in a line: phage ELISA, vs IGF-1R.
For test [4], the target named is Soluble IGF-1R (UniProt P08069).
The target is the same in test [5]. The experiment in a line: phage ELISA; ratio over background for IGF-1R divided by that for IR.
Test [6] concerns the target T1, Insulin receptor prepared according to Bass et al., 1996: soluble human insulin receptor-immunoglobulin heavy chain chimera (human), P06213. The experiment in a line: phage ELISA vs milk.
Test [7] addresses T2, Soluble IGF-1R (R&D Systems, Cat. # 391-GR/CF); recombinant human IGF-1R (human), P08069. Put plainly: phage ELISA vs milk.
The target in test [8] is T2, Soluble IGF-1R (R&D Systems, Cat. # …). Put plainly: phage ELISA, vs IR.
In test [9] the target is T1, Insulin receptor prepared according to …. Put plainly: phage ELISA, vs IGF-1R.
Test [10] addresses soluble human insulin mini-receptor (mIR) (human) (UniProt P06213). Put plainly: FP competition vs FITC-RP9, mIR.

Turning to CWARPCGDAANFYDWFVQQAS [C1], the IC50 – broadly, the concentration at which inhibition is half-maximal – in test [1] stood at 0.052 µM.

For RGAVAGFHDQFYDWFDRQVSRVHKFG [H2CA-4-E9-IGFR], the Ratio over Background in [2] was 1.9 fold. This molecule also registered an IR/IGF-1R Comparison in [3] of 0.3.

B1: 26L-3-G5-IR (peptide)
peptide: AETSAQVGWQRLWSVWPGDHWSTLDPFYHKLSELLRESGA
modifications: not fully specified (residue 27, N-terminus, C-terminus); printed as AETSAQVGWQRLWSVWPGDHWSTLDP9YHKLSELLRESGA
Take B1: the ratio over background, IGF-1R (ratio over background) in test [4] turned out to be 2. Moreover, in test [5], the IGF-1R/IR ratio comparison came to 1.4.

As for CCTTEMVVMDARDDPFYHKLSELVTGG [B6Hα-1-B5-IR], the Ratio over Background in [2] is 1 fold. Further, the IR/IGF-1R Comparison in test [3] was found to be 0.

B2: 20E2B-2-B11-IGFR (peptide)
peptide: VVTPVNFYRALEALVRGXRLG
modifications: not fully specified; printed as VVTPVNFYRALEALVRG.RLG; X: residue not identified in the source
Consider B2, for which the Ratio over Background in test [6] is 1.1 fold; in test [7], 10.6 fold. The IGF-1R/IR Comparison in test [8] is 9.4. For the same molecule, the IR/IGF-1R Comparison in test [9] came to 0.1.

Turning to FHENFYDWFVQRVSKK [H2C], in test [10], the IC50 amounted to 0.77 µM.

For YRGMLVLGRISGGAGKAASERPARIGQKVSAVNFYDWFV [A6L-0-H3-IR], the Ratio over Background in test [2] worked out at 2 fold. Further, the IR/IGF-1R Comparison in [3] was 0.1.

Source of the values: patent US20030236190A1.
